{"source": "paper PMC8854993", "about": "“Acetylation at Lysine 86 of Escherichia coli HUβ Modulates the DNA-Binding Capability of the Protein” (Frontiers in Microbiology, 2021)", "binders": {"B1": {"name": "Escherichia coli HUβ (natural protein, E. coli, UniProt P0ACF4 1-90, looked up)", "chain": "MNKSQLIDKIAAGADISKAAAGRALDAIIASVTESLKEGDDVALVGFGTFAVKERAARTGRNPQTGKEITIAAAKVPSFRAGKALKDAVN", "notes": "hupB amplified from chromosomal DNA of E. coli BL21(DE3) with primers from the start codon to the last codon, followed by an XhoI site and His6; The reverse primer carries CTCGAG (XhoI) between hupB and the His codons, so Leu-Glu probably stands before His6; theoretical mass printed 10,290.7 Da; No tag cleavage is described; also called HUβ2 (homodimer); hupB-His6; source: E. coli BL21-AI, …"}, "B2": {"name": "Escherichia coli HUβ acetylated at Lys67 (natural protein, E. coli, UniProt P0ACF4 1-90, looked up)", "chain": "MNKSQLIDKIAAGADISKAAAGRALDAIIASVTESLKEGDDVALVGFGTFAVKERAARTGRNPQTGKEITIAAAKVPSFRAGKALKDAVN", "modifications": "acetyl-lysine at 67", "notes": "from pBAD hupB(K67TAG)-His6, amber codon at Lys67 read as acetyl lysine; Same construct as m2 but with acetyl-lysine at 67; theoretical mass printed 10,332.7 Da; also called HUβ(K67ac); HUβ(K67ac)2 (homodimer)"}, "B3": {"name": "Escherichia coli HUβ acetylated at Lys86 (natural protein, E. coli, UniProt P0ACF4 1-90, looked up)", "chain": "MNKSQLIDKIAAGADISKAAAGRALDAIIASVTESLKEGDDVALVGFGTFAVKERAARTGRNPQTGKEITIAAAKVPSFRAGKALKDAVN", "modifications": "acetyl-lysine at 86", "notes": "from pBAD hupB(K86TAG)-His6, amber codon at Lys86 read as acetyl lysine; Same construct as m2 but with acetyl-lysine at 86; theoretical mass printed 10,332.7 Da; also called HUβ(K86ac); HUβ(K86ac)2 (homodimer)"}, "B4": {"name": "30-bp duplex with 2-nt gap (dsDNA)", "DNA 1": "CCAACTTCCCTAACCCAGCTGCGATCCGTA", "DNA 2": "TACGGATCGCAGC", "DNA 3": "GGTTAGGGAAGTTGG", "modifications": "2-nt gap in bottom strand"}, "B5": {"name": "Escherichia coli HUα (natural protein, E. coli, UniProt P0ACF0 1-90, looked up)", "chain": "MNKTQLIDVIAEKAELSKTQAKAALESTLAAITESLKEGDAVQLVGFGTFKVNHRAERTGRNPQTGKEIKIAAANVPAFVSGKALKDAVK", "notes": "hupA amplified from chromosomal DNA of E. coli BL21(DE3) with primers from the start codon to the last codon, followed by His6; No tag cleavage is described; the printed mass (10,357.5 Da observed, 10,357.8 Da calculated) appears to fit the whole protein with His6; also called HUα2 (homodimer); hupA-His6; source: E. coli BL21-AI, purified (Ni-NTA, cation exchange RESOURCE S)"}}, "key": {"[1]": {"molecular_target": "the molecule itself", "assay": "SEC; analytical SEC, Agilent Bio SEC-3 column in PBS (10 mM NaPO pH 7.4, 154 mM NaCl), 0.6 mg/mL protein, 20 uL injected, 0.35 mL/min, detection at 214 nm, molecular weight estimated from a standard curve; heterodimers made by mixing purified homodimers 1:1 on ice for 5 min"}, "Escherichia coli HUα": {"molecular_target": "B5", "assay": "SEC; analytical SEC, Agilent Bio SEC-3 column in PBS (10 mM NaPO pH 7.4, 154 mM NaCl), 0.6 mg/mL protein, 20 uL injected, 0.35 mL/min, detection at 214 nm, molecular weight estimated from a standard curve; heterodimers made by mixing purified homodimers 1:1 on ice for 5 min", "conditions": "both partners purified"}, "HUβ": {"molecular_target": "T1, HUβ (Escherichia coli BL21(DE3), UniProt P0ACF4 1-90)", "T1 sequence": "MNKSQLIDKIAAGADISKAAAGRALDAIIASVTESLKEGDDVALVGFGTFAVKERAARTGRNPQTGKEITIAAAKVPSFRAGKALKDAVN", "assay": "EMSA; homodimer; 30 mM Tris pH 7.5, 100 mM NaCl, 0.02% Tween20, 0.5 mg/ml BSA; 30-bp DNA 1 µM, 18°C 10 min, 10% PAGE in TBE; long DNA 250 ng in 15 µL, 37°C 1 h, 0.5% agarose in", "conditions": "protein: recombinant; tags: C-terminal 6xHis; chain copies: 2; three strands; 2-nt gap in bottom strand between S16 and S17; blunt outer ends"}}, "data": [{"binder": "B1", "values": [{"measurement": "stoichiometry N", "setting": "[1]", "result": 2}, {"measurement": "binding result", "setting": "Escherichia coli HUα", "result": "binds"}]}, {"binder": "B2", "values": [{"measurement": "stoichiometry N", "setting": "[1]", "result": 2}, {"measurement": "binding result", "setting": "Escherichia coli HUα", "result": "binds"}]}, {"binder": "B3", "values": [{"measurement": "stoichiometry N", "setting": "[1]", "result": 2}, {"measurement": "binding result", "setting": "Escherichia coli HUα", "result": "binds"}]}, {"binder": "B4", "values": [{"measurement": "binding result", "setting": "HUβ", "result": "binds"}]}, {"binder": "B5", "values": [{"measurement": "stoichiometry N", "setting": "[1]", "result": 2}]}]}
